Reference: the DeepSol protein solubility set

Assay: soluble on expression in E. coli; label from the status in PepcDB or PDB records
For “MSFILPSESIDGTHPCNGLHMNGQDSLVQPLLTDFYQITMCYAYWKTGTHNEPAVFDVFFRKNPFQGEFTVFAGLEDCLRFVENFKFSQSDIDYVKKILPENAEPEFYEYLETLNGSHLTIEAVAEGSVVFPKVPLLTINGPLAMCQLIETSILNLVNYASLVATNAARFRQASGWKIQLLEFGLRRAQGPNGGLTASKYCYIGGFDATSNVLAGKLYGIPVKGTQAHSFICSFSSPAELKVRLLNHKITNEKADLFQISMEKRAWLLDQFSWKAALSEVSDGELSAFVAYAIAFPDTFLALIDTYDVIRSGVVNFVAVSLALHDLGYRSMGCRIDSGDLSYLSKELRECFVKVSTLKGEYKFFEKMSIVASNDINEETIMSLNDQQHEINAFGVGTHLVTCQKQPALGCVYKLVAQSAQPKIKLSQDVTKITIPGKKKCYRIFGKNGYAILDLMMLEDEPEPQPNQQILCRHPFEVESKRALVNANKIIKLHNVYWKDGEMITPLPTLNEIKEHVNESIRSTLRQDHRRYLNPTPYKVSVSERLYQFLHTLWLQNAPIGQLE”, the “soluble on expression in E. coli” value was “soluble”.
With “MGSDKIHHHHHHMVVSIGVFDGVHIGHQKVLRTMKEIAFFRKDDSLIYTISYPPEYFLPDFPGLLMTVESRVEMLSRYARTVVLDFFRIKDLTPEGFVERYLSGVSAVVVGRDFRFGKNASGNASFLRKKGVEVYEIEDVVVQGKRVSSSLIRNLVQEGRVEEIPAYLGRYFEIEGIVHKDREFGRKLGFPTANIDRGNEKLVDLKRGVYLVRVHLPDGKKKFGVMNVGFRPTVGDARNVKYEVYILDFEGDLYGQRLKLEVLKFMRDEKKFDSIEELKAAIDQDVKSARNMIDDIINSKFEKEG” the “soluble on expression in E. coli” value was “not soluble”.
With “MNQCKVMNDGYLEKRSNGLLQLWKKKRCVLSDEGLRLYGCKGDSGKEMRFEQMTTLDCVEYKRGLVYFTIVMNDGKEVDFRCQQEGTAWNAEIALALVRFKNRVAVQTGRNRHLSHLGSCGEGDVEL” the “soluble on expression in E. coli” value was “not soluble”.
In the case of “MHECKTVTLRTRPLKGRMMSFYLDYYPGYRDKETMKVIRHESLGIYIYANPRNKREQNFNEVMTEKAEAIRCRRFESVVNERYDFFDKYKLKADFLEYYRKQLRKHDQKWEFVYLHFNNFVHGKCTFEEIDIDLCNKFREYLLSAKKLRRNGRITRNSASGYWSTFRGFLKILYRNGMIKTNVNDFLEKIETEDVMKEALSVEELYKLAETPCKKPILKTASLFSCMTSLRISDILSLCWEDIVDYSAGGKCVHIITQKNKAEDIIPISEEALGLIGYSSEKKGLVFKGLMRSWTQIPMKEWI”, the “soluble on expression in E. coli” value is reported as “not soluble”.
In the case of “MGSDKIHHHHHHMLRPESEAELAQIVAGLTAPVRIRGGGTRGVPGPKAELDISGLSGITLYEPGALTLVAKAGTPVAEIEAALAAEGQRLAFEPVDHRGLMGTGGTPTIGGVVAGNISGPRRIQAGAARDFLLGVRYVDGLGQVISNGGRVMKNVTGYDLVKLMAGSWGTLGVLSEVSLKVLPKAETQTTLAISVPDAASAVRALSAGLGSPYEVTGAAYDPALGQALVRIEGFEASVAYRAEALSRLFAPFGTVARLEDDPWPGIRDVAPFHGREGDVWRISVKPGDAPELAARCKAEALLFDWGGGLIWALMPEGADLRGRLGEFAGHATLIRGDRRQHAMFQPESAPLAALTRGLRQRFDPKGHFNPGLMG”, the “soluble on expression in E. coli” value is reported as “not soluble”.
For “GSRTVDLELELQIELLRETKRKYESVLQLGRALTAHLYSLLQTQHALGDAFADLSQKSPELQEEFGYNAETQKLLCKNGETLLGAVNFFVSSINTLVTKTMEDTLMTVKQYEAARLEYDAYRTDLEELSLGPRDAGTRGRLESAQATFQAHRDKYEKLRGDVAIKLKFLEENKIKVMHKQLLLFHNAVSAYFAGNQKQLEQTLQQFNIKLRPPGAEKPSWLEEQ”, the “soluble on expression in E. coli” value was “soluble”.
For “MSSEACTDPYLRCAFNGAALTALGISHSALLAHSPQGCEYLVNNAFASQECDYMETMTLCTKLCVDEIVHGGEDILARTIREVKDLPISALFVLSACGPEIVGDDIVGVCEALQPEVKFRLVPIESAGFRGSQYDGIDIAMDTILKKLVKDDVEKIPGSVCLEHHHHHH”, the “soluble on expression in E. coli” value was “not soluble”.
For “MAEVTILGLGNLLWADEGFGVRAAEKLFEQYADNEKVDVVDGGTQGLALLPWLQQTEKLLIMDAIDFGMAPGSLAMFRDEQVPAYLTAKKLSLHQTSFSEVLALLQLTGGQLSEIVLIGVQPECLDDYGGSLTPQVKAQLMPAVYLAQEVLAQWGITASSAALPTERLNHYSLCMERYEDERPDAQSACRVGDIRVLQREKS”, the “soluble on expression in E. coli” value was “not soluble”.
In the case of “MGSDKIHHHHHHMNVAILGNQARAMVNFWSVFIARLQADGHTVVCIIPPGDAEGDAALTSMGVRVRHYPLDRKGLNPVRDVATFAALYRIFRQERPDRLFCFTIKPVIYGATAAALARVPGRVAMITGLGYMFEADTPVKRLLNRVAVLMYRAALACVHTVFFQNEEDRAVFTAKGIVPAGTEVAMSRGTGVALDHFAPAETVTAPVTFLLVGRLIEAKGLYEYAEAARMLKARHPEARFRVLGPPEQGLGSVPMETINQWHREGVIEYMGQTRDVRPFLREASVVVLPSWREGTPCSVMEGMSMARAAIVTDAPGCREVVEDGVNGFMVPLRSPEALAAAMERFIEDPSLVQRMGRAGRDLAEREFDAEKVAAHIMRVMRLDAAPRAGGNPQ”, the “soluble on expression in E. coli” value is reported as “not soluble”.
In the case of “IAALSRDITPQQDGSVIVDASITIRHLNRMMGWSLPLIGPRTLSGLIIEHLGYIPPPDSCLVIDHYHIEILRVSDNMIRGVKMIKTN”, the “soluble on expression in E. coli” value is reported as “not soluble”.
For “MKVSELMTTDPITVSIDDTFSKVMSKMNETGIHQLPVMDGDRYAGMITYSDLLKKRSIQVKSKISNYTISTPTLNADDDVLEAVRLIKDTGLSALPVFQKGKLVGIISRTDIIKNLPQIVDVRDVRIFQIMSSDPIYVYEDDDIEEAFDSMRMLNEVEIPVASRDEKLSGIIRLNSILNILYRQKEKIKYGGYGEKEPVEIKCKSLMDPPVSVDRYAGIDEAVKLMMQYSLHIMPVTDSGKIVGIVDFSDLINMIKTESKEGILIEISGLDVYDEDLYDIAFELSERFLDKFSKMTDVSQGKLLIHVMKYKTQGSTKYSIRTRISAPPLFLVQNGSGWNFAEVLGEIFDRYEERIKKMKEKQ”, the “soluble on expression in E. coli” value was “not soluble”.
In the case of “GSHMEKRTPHTRLSQVKKLVNAGQVRTTRSALLNADELGLDFDGMCNVIIGLSESDFYKSMTTYSDHTIWQDVYRPRLVTGQVYLKITVIHDVLIVSFKEK”, the “soluble on expression in E. coli” value is reported as “soluble”.
With “MGSDKIHHHHHHMKILFVAPGWPRGRLWGELGFKFPSLALAALAAVTPPEWDAALCDESRETIDFNAPCDLVAITAMTPQAPRAYEIAAGFRARGKTVVMGGFHASNLPDEALGHVDAVVVGEGELSWPLLLADFQAGRLQRLYRSPGLLPMASIPVARREIFAGKGYLLTNTLQTTRGCPFDCEFCSVTAFYGRKYRERPVEAVLAELETLRKANSFAFFVDDNLVADRRYALPLFRGMKGMGFKWLSHAPIDFAGDEELMRAAGESGCIGMFVGFESLDQEALAAMGKVTNSSSAFLDQARKFRDHGIGILGSFVLGYDGDTPDSFGRILRFCEEARIEAAIFPILTPYPGTAVRRRLEAEGRITSNDWRDYDMGHVTFRPTGMTARELQDGHDWLNRSFYSFGSMWRRIGKLHRSVQVFGPMNLGFRSAIRKSDKTKAS” the “soluble on expression in E. coli” value was “not soluble”.
In the case of “MGSDKIHHHHHHMRIAIVHYWLVGMRGGEKVIEALCRMYPQADIFTHVVAPERLSSMLAARHIRTSFIQRLPGSVRHYQKYLPLMPLALEQFDLRDYDLVISSESGPAKGVLTRADTAHVCYCHSPMRYLWDFQQDYLDNASPLMRPFMRIFFHYLRQWDVASSQRVDRFVANSRNVARRITKHWRREATVVHPPVECDLFTQAPDVADLPDDEVADIVRQGGYYLCLGQLVGYKRVDIAIEACRKAGRRLVVVGDGEQRAMLERNAPEGVTFLGWRTQDEIRALYAGCRALLFPGEEDFGIVPVECMASGRPVIAYGKGGALETVLDGETGVLFHEQTATACHDAIMRHERMERDFVPDSLRRHARTFDTSVFERKFRREVEAALHAVRG”, the “soluble on expression in E. coli” value is reported as “not soluble”.
In the case of “MEAKTMKDMQKEVDAYIGQFKEGYFSPLAMMARLTEEMGELAREVNHYYGEKPKKTTEKERSIEEELGDVLFVMICMANSLNIDLETAHNIVMNKFNTRDKDRWTRIDEGEKE”, the “soluble on expression in E. coli” value is reported as “not soluble”.
In the case of “MMHEKNIALLCDEADRLLQLNINLLRQMVDEPDVLSDSKNENGLLFDKRKALKRIEELEGEQIKTARREMVLAVVGTMKAGKSTTINAIVGQEILPNRNRPMTSVPTLIRHVPGKTEPVLHLEHIQPVRNLLITLQEKLATPAGQQVAQSLQQTGDTRELLDILADDVWLKNEYHGEDEIFTGLASLNDLVRLAAAMGTEFPFDEYAEVQKLPVIDVAFSHLVGMDACQGTLTLLDTPGPNEAGQPQMEMMMRDQLQKASAVLAVMDYTQMNSKADEEVRKELNAIADVSAGRLFVLVNKFDEKDRNGDGADAVRQKVPAMLNSDVLPASRVYPGSSRQAYLANRALHELRKNGALPVDEAWVDDFIREAFGPMVEEDDWKDSTKVNKKAEKLWNISLIDQLITEVIQSSHSRAAALAVDSAAAKLMQNAENVSEYLSLRHQGLQQSIQSLQAHITSLLADIQEIEECQNQVTGDVRMAMEDINTKTGELLTKVCASLEEELNDYFRSGKRKEQQMLEEENSAQPRERNAFAFFHDIFGTGNQHDRMRDFDPDSPEIKFSDRRAALELMTQIESTVTSLHREAEAQFRPELEKIVSGIETGFRGTALYATENIAGRINARLEDEGFTVKISFPAVSQLQTRLAVKINLSALMEERTETVTRRRRQSGVWGTVCRWFGTSDLGWENYDEDVSRSVININKAREEVMSLTRAYFGELQASIEQDINQPVRQEIDAFFCAFREKVEQLRNTLIQSSEDHKRDQQAQERLTGRLQALNERVPELITDSKALREELETML”, the “soluble on expression in E. coli” value is reported as “not soluble”.
With “EVKLQESGGDLVQPGGSLKLSCAASGFTFSSYTMSWVRQTPEKRLEWVASINNGGGRTYYPDTVKGRFTISRDNAKNTLYLQMSSLKSEDTAMYYCVRHEYYYAMDYWGQGTTVTVSSAWRHPQFGG” the “soluble on expression in E. coli” value was “soluble”.
With “MSLESIQSSLKHMTGNRSFEKQFTQLKEAVFRSPHVQLFLEEHPSLSPITLEQGLSKLYEYQKEQSHCAHCPGLQKCPNLMKGYQPTLYVERDSLELSYSPCPLKEEEEREKKKRSLIRSLYIPKEILEAKFDDVESEPGRSIASHRALEFALSAKPGEDGMGLYLYGKFGVGKTFLMGAIANELKDRGIDSTIVYVPDFFRELKQSIGDGTFQQKLDFVKNAQVLIFDDIGAETMTSWVRDDVLGVILQYRIMEKLPTLFTSNYDYDELEEHLAYNDKSGTELLKAKRVMERIRHYTVSVMVQGQNRREHQSEGHHHHHH” the “soluble on expression in E. coli” value was “soluble”.
In the case of “MGSDKIHHHHHHMSVPLRAVQLTEPSLFLQEHPEVQFVDLLISDMNGVVRGKRIERNSLPKVFEKGINLPASLFALDITGSTVESTGLGLDIGDADRICYPIPGTLSMEPWQKRPTAQLLMTMHELEGEPFFADPREVLRQVVARFTEMELTIVAAFELEFYLIDQENVNGRPQPPRSPISGKRPQSVQVYSIDDLDEYVECLQDIIDGARAQGIPADAIVAESAPAQFEVNLHHVADPMKACDYAVLLKRLIKNIAYDHEMDTTFMAKPYPGQAGNGLHVHISLLDKHGNNIFTSEDPEQNAALRHAIGGVLETLPASMAFLCPNVNSYRRFGSQFYVPNAPSWGLDNRTVALRVPTGSPDAVRLEHRVAGADANPYLLLASVLAGVHHGLTNKVEPGAPIEGNSYEQLEPSLPNNLRDALRELDDSEILAKYIDPKYIDIFVACKESELEEFEYSISDLEYNWYLHTV”, the “soluble on expression in E. coli” value is reported as “not soluble”.
In the case of “GMLDNAIPQGFEDAVELRRKNRETVVKYMNTKGQDRLRRHELFVEDGCGGLWTTDTGSPIVIRGKDKLAEHAVWSLKCFPDWEWYNIKVFETDDPNHFWVECDGHGKILFPGYPEGYYENHFLHSFELDDGKIKRNREFMNVFQQLRALSIPVPQIKREGIPT”, the “soluble on expression in E. coli” value is reported as “soluble”.
